Test results reported in patent publication US20040248181A1, “Method and kit for enhancing extraction and quantification of target molecules using microdialysis” (priority 2003, published 2004).

B1: IL-2: mouse cytokine, 15 kD; target analyte of microdialysis sampling (protein, UniProt P04351 21-169, looked up)
Interleukin-2: APTSSSTSSSTAEAQQQQQQQQQQQQHLEQLLMDLQELLSRMENYRNLKLPRMLTFKFYLPKQATELKDLQCLEDELGPLRHVLDLTQSKSFQLEDAENFISNIRVTVVKLKGSDNTFECQFDDESATVVDFLRRWIAFCQSIISTSPQ

Assay: Microdialysis sampling of cytokines across CMA-20 probe (10 mm polyethersulfone membrane, 100 kD MWCO) with multiplexed cytokine bead array / flow cytometry readout
Type: physicochemical
Conditions: control perfusion fluid without microspheres; flow rate 1.5 μl/min; quiescent phosphate buffer pH 7.4 containing 5000 pg/ml cytokines
Method: Microdialysis probes (CMA-20) with a 10 mm polyethersulfone membrane (100 kDa MWCO) were purchased from CMA Microdialysis (Acton Mass.) and were used as received. For control experiments, the perfusion fluid contained the assay diluent from the BD Pharmingen kit. To enhance the transport of cytokines during the microdialysis sampling process, 5 μl of bead solution for each target analyte was combined and diluted to 250 μl with the assay diluent. […] Greater than 200 μl of fluid was allowed to pass through the microdialysis probe that was immersed into a standard containing 5000 pg/ml of IL-2, IL-4, IL-5, IFN-gamma, and TNF-alpha. After sample collection, the dialysates containing microspheres were reconstituted in 25 μl of assay diluent. Microspheres with coupled target analyte were then incubated with 25 μl phycoerythrin detection reagent for 2 hours and washed briefly prior to flow cytometric analysis.
The dialysate samples were analyzed using a BD FACScan flow cytometer with the appropriate BD Biosciences software for this analysis.
Different cytokines (e.g., mouse IL-2 (15 kD), IL-4 (20-25 kD), and TNF-α ([…])) have been successfully measured across microdialysis probes (CMA-20, 10 mm, polyethersulfone membrane, MWCO 100 kD) in a quiescent solution using a multiplexed cytokine bead array assay (BD Pharmingen). TNF-α has the largest molecular weight of the cytokines targeted for analysis in this example (Thorpe et al., “Detection and Measurement of Cytokines,” Blood Rev. 6:133-48 (1992), which is hereby incorporated by reference in its entirety). Only 25 μl of sample was needed to simultaneously measure all three of these cytokines in solution using the multiplexed bead array (Carson et al., “Simultaneous Quantitation of 15 Cytokines Using a Multiplexed Flow Cytometric Assay,” J. Immunol. Methods 227:41-52 (1999), which is hereby incorporated by reference in its entirety). […]

Molecule	microdialysis Ed (extraction efficiency) [%]
TNF-α	1.5±0.5
IL-4: mouse cytokine, 20-25 kD; target analyte of microdialysis sampling	0.9±0.3
B1	1.1±0.3
